Molecular target: T1, human SIRPA_V2 protein (human, UniProt P78324 31-504)
T1 construct: Expressed on 293α cells from pcDNA3.2 V5-DEST or pFLAG V5-DEST (FLAG-tagged) vectors; also called human SIRPA Variant 2; ECD variant (full-length, amino acids 1 to 504)
Test: cell-based ELISA on 293α cells expressing FLAG-tagged SIRPA_V2; Abs 490 normalized to FLAG tag
Protocol: The 293α cells [described in Example 1)-6] were prepared in a 10% FBS-containing DMEM medium to 5×10⁵ cells/mL. pFLAG V5-DEST-SIRPA_V1, pFLAG V5-DEST-SIRPA_V2, or pFLAG V5-DEST was introduced into the cells using Lipofectamine LTX (Invitrogen), followed by addition of 100 μL per well to a 96-well plate (Corning Incorporated), and cells were cultured overnight in the 10% FBS-containing DMEM medium at 37° C. under a 5% CO₂ condition. The obtained introduced cells were used for cell-based ELISA in a state that they adhered to each other. After the culture supernatant was removed, 50 μL per well of the cD13 (IgG2 and IgG4pf), cF44 (IgG1, IgG2, IgG4p, and IgG4pf), and cF63 (IgG2 and IgG4pf) antibodies prepared in Examples 3 and 4 were added to each of pFLAG V5-DEST-SIRPA_V1, pFLAG V5-DEST-SIRPA_V2, or pFLAG V5-DEST-introduced cells at final concentrations of 0 to 10,000 ng/mL, and the mixture was allowed to stand at 4° C. for one hour. Further, 50 μL per well of anti-FLAG M2 antibody (SIGMA) diluted with 5% FBS-containing PBS to a final concentration of 10,000 ng/mL was added to a well for detecting expression of each SIRPA construct, and the mixture was allowed to stand at 4° C. for one hour. The cells in the well were washed once with 5% FBS-containing PBS, followed by addition of Peroxidase AffiniPure F(ab′)₂ Fragment Goat Anti-Human IgG, Fcγ Fragment Specific (Jackson ImmunoResearch) diluted 1000-fold with 5% FBS-containing PBS, and the mixture was allowed to stand at 4° C. for one hour. The cells in the well were washed five times with 5% FBS-containing PBS, followed by addition of 100 μL per well of an OPD coloration solution [o-phenylenediamine dihydrochloride (Wako Pure Chemical Industries, Ltd.) and H₂O₂ were dissolved in an OPD solution (0.05 M trisodium citrate, 0.1 M disodium hydrogen phosphate dodecahydrate, pH 4.5) at 0.4 mg/mL and 0.6% (v/v), respectively]. A coloration reaction was performed with stirring occasionally, 100 μL per well of 1 M HCl was added to terminate the coloration reaction, and then absorbance at 490 nm was measured with a plate reader ARVO (PerkinElmer Inc.). Binding of the human chimeric anti-human SIRPA antibodies to each construct was standardized by expression of the FLAG tag.

T1 sequence (P78324 other isoform, or with tags, fused parts or gaps limits assumed): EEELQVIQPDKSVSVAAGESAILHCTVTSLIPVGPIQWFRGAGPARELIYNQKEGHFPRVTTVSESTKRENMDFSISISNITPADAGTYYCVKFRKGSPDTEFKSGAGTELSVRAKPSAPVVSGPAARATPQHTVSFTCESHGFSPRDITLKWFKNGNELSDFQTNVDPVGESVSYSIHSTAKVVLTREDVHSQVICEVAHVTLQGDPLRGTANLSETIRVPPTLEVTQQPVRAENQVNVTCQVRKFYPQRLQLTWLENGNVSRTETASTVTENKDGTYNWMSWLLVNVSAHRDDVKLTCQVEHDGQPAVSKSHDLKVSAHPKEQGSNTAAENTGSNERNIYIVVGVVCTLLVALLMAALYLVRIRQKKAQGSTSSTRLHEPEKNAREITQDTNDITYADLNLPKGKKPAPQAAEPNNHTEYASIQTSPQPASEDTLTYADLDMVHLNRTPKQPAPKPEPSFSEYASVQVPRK

EC50 (read off the curve): ~0.05 µg/mL
B1: human chimeric anti-SIRPA antibody cD13 (antibody, human IgG4 S228P, kappa, F234A L235A, V domains shown)
VH: EVQLVESGGGLVQPGRSLKLSCLASGFTFSDYGMIWVRQAPGKGLEWVASISSSSSYIYYADTVKGRFTISRENAKNTLFLHMTSLRSEDTALYYCARRYYGFNYPFDYWGQGVMVTVSS
VL: DTVLTQSPALAVSLGQRVTISCGASKSVRTYMHWYQQKSGQQPKLLIYSASNLEAGVPSRFSGSGSGTDFTLTIDPVEADDIANYYCQQSNEPPYTFGAGTKLELKR
notes: Human IgG4proFALA heavy chain, human kappa light chain; also called cD13 (IgG4pf); human chimeric antibody D13

Source: US20260098102A1 (NATIONAL UNIVERSITY CORPORATION KOBE UNIVERSITY, published 2026)
